Earlier results, collected in article PMC10716173.

Biological target: stapled BID BH3 peptide BH3 (Homo sapiens) (UniProt P55957)
Sequence (P55957 80-101): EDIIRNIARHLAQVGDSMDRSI

Chain of BAK (Q16611 2-211): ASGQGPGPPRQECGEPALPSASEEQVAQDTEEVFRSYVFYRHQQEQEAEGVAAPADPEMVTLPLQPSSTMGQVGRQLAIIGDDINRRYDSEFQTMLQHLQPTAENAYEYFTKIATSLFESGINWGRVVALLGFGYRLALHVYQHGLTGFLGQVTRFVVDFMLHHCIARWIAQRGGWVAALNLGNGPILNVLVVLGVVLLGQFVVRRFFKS

BAK (from UniProt Q16611)
Kd: 1000 nM
